From publication doi:10.1101/2022.07.30.502139

Target: OTLD1-RFP (Arabidopsis)
Assay: FRET or BRET

B1: LSH10-GFP (natural protein)
chain: MSSPRERGKSLMESSGSEPPVTPSRYESQKRRDWNTFGQYLKNQRPPVPMSHCSCNHVLDFLRYLDQFGKTKVHVPGCMFYGQPEPPAPCTCPLRQAWGSLDALIGRLRAAYEENGGPPETNPFASGAIRVYLREVRECQAKARGIPYKKKKKKKPTPEMGGGREDSSSSSSSFSFS
For B1, the %AB-FRET (donor dequenching) was 13%.
